According to patent US9212231B2, “TRAIL R2-specific multimeric scaffolds” (MEDIMMUNE, LLC, dated 2015):
Several values for one entry are separate records, joined by “and”; a condition that tells them apart may be missing. Equal values may be shown once. One block for each binder: values may come before it.

Tests used:
[1] = target: T1, TRAIL R2 expressed on the cell surface (human, UniProt O14763); test: cell-based or functional assay
[2] = target: T1, TRAIL R2 expressed on the cell surface; test: cell-based or functional assay; remark: listed apart in the source
[3] = target: recombinant Murine CD40L (E. coli produced) (murine, UniProt P27548); test: biosensor competition: inhibition of Murine CD40L (0.5 µg/ml) binding to immobilised Murine CD40-Fc
[4] = target: Murine CD40L on the Th2 cell line D10.G4.1 (murine, UniProt P27548); test: cell-based or functional assay
[5] = target: T1, TRAIL R2 expressed on the cell surface; test: cell-based or functional assay; remark: listed apart in the source
[6] = target: TRAIL R2 (recombinant, form not given) (human, UniProt O14763, biotin (in the capture ELISA and the competition ELISA of Example 14)); test: SPR (ProteOn XPR36), TRAIL R2 immobilised, equilibrium analysis
[7] = target: T1, TRAIL R2 expressed on the cell surface; test: cell-based or functional assay; remark: listed apart in the source

IC50 [3]: 5 nM and 6 nM
IC50, inhibition of Murine CD40L-induced CD86 expression on CD19 gated B cells [4]: 100000 to 200000 nM
B2: C4(M13) (designed binder)
chain: AIEVKDVTDTTALITWHDAFGYDFGCELTYGIKDVPGDRTTIDLPDHFHNYSIGNLKPDTEYEVSLICANDHGFDSNPAKETFTTGGGGSGGGGSGGGGSGGGGSGGGGSGGGGSGGGGSRLDAPGQIEVKDVTDTTALITWHDAFGYDFGCELTYGIKDVPGDRTTIDLPDHFHNYSIGNLKPDTEYEVSLICANDHGFDSNPAKETFTTGGGTLGHHHHHHHH

IC50 [3]: 29 nM
IC50, inhibition of Murine CD40L-induced CD86 expression on CD19 gated B cells [4]: 100000 to 200000 nM
B3: C1(M13) (designed binder)
chain: AIEVKDVTDTTALITWHDAFGYDFGCELTYGIKDVPGDRTTIDLPDHFHNYSIGNLKPDTEYEVSLICANDHGFDSNPAKETFTTAGGGGSRLDAPGQIEVKDVTDTTALITWHDAFGYDFGCELTYGIKDVPGDRTTIDLPDHFHNYSIGNLKPDTEYEVSLICANDHGFDSNPAKETFTTGGGTLGHHHHHHHH

IC50 [3]: 5 nM and 6 nM
IC50, inhibition of Murine CD40L-induced CD86 expression on CD19 gated B cells [4]: 100000 to 200000 nM
B4: C3(M13) (designed binder)
chain: AIEVKDVTDTTALITWHDAFGYDFGCELTYGIKDVPGDRTTIDLPDHFHNYSIGNLKPDTEYEVSLICANDHGFDSNPAKETFTTGGGGSGGGGSGGGGSGGGGSGGGGSRLDAPGQIEVKDVTDTTALITWHDAFGYDFGCELTYGIKDVPGDRTTIDLPDHFHNYSIGNLKPDTEYEVSLICANDHGFDSNPAKETFTTGGGTLGHHHHHHHH

IC50 [3]: 5 nM and 6 nM
IC50, inhibition of Murine CD40L-induced CD86 expression on CD19 gated B cells [4]: 100000 to 200000 nM
B5: C2(M13) (designed binder)
chain: AIEVKDVTDTTALITWHDAFGYDFGCELTYGIKDVPGDRTTIDLPDHFHNYSIGNLKPDTEYEVSLICANDHGFDSNPAKETFTTGGGGSGGGGSGGGGSRLDAPGQIEVKDVTDTTALITWHDAFGYDFGCELTYGIKDVPGDRTTIDLPDHFHNYSIGNLKPDTEYEVSLICANDHGFDSNPAKETFTTGGGTLGHHHHHHHH

Kd [6]: 4130 nM
B7: 1C12 (designed binder)
chain: AIEVKDVTDTTALITWAKPEKWDGSIYGCELAYGIKDVPGDRTTIDLNSRHTAYSIGNLKPDTEYEVSLICFTPYGAKSNPAKETFTTGGGTLGHHHHHHHH

Fold Improvement (Kd, against lead clone 1C12) [6]: 83 fold
Kd [6]: 50 nM
B10: C4 (designed binder)
chain: AIEVKDVTDTTALITWAKPWVDPPPLWGCELAYGIKDVPGDRTTIDLQQKHTAYSIGNLKPDTEYEVSLICFDPYNKRNVPAKETFTTGGGTLGHHHHHHHH

Maximum Inhibition %, H2122 cells [5]: 97%
B13: A4(1E11) (designed binder)
chain: SGGGGSAIEVKDVTDTTALITWAKPWVDPPPLWGCELAYGIKDVPGDRTTIDLQQKHTAYSIGNLKPDTEYEVSLICFDPYGAKSNPAKETFTTGGGGSGGGGSGGGGSAIEVKDVTDTTALITWAKPWVDPPPLWGCELAYGIKDVPGDRTTIDLQQKHTAYSIGNLKPDTEYEVSLICFDPYGAKSNPAKETFTTGGGGSGGGGSGGGGSAIEVKDVTDTTALITWAKPWVDPPPLWGCELAYGIKDVPGDRTTIDLQQKHTAYSIGNLKPDTEYEVSLICFDPYGAKSNPAKETFTTGGGGSGGGGSGGGGSAIEVKDVTDTTALITWAKPWVDPPPLWGCELAYGIKDVPGDRTTIDLQQKHTAYSIGNLKPDTEYEVSLICFDPYGAKSNPAKETFTTGGGGSGGGGSGTGSAMASGGGGSAIEVKDVTDTTALITWAKPWVDPPPLWGCELAYGIKDVPGDRTTIDLQQKHTAYSIGNLKPDTEYEVSLICFDPYGAKSNPAKETFTTGGGGSGGGGSGGGGSAIEVKDVTDTTALITWAKPWVDPPPLWGCELAYGIKDVPGDRTTIDLQQKHTAYSIGNLKPDTEYEVSLICFDPYGAKSNPAKETFTTGGGGSGGGGSGTLGHHHHHHHH
EC50, killing of H2122 cells [5]: 0.0009 nM

The next lines start with the binder.

B1: A3 (G6) (designed binder)
chain: SGGGGSAIEVKDVTDTTALITWAKPWVDPPPLWGCELAYGIKDVPGDRTTIDLQQKHTAYSIGNLKPDTEYEVSLICFDPYGMRSKPAKETFTTGGGGSGGGGSGGGGSAIEVKDVTDTTALITWAKPWVDPPPLWGCELAYGIKDVPGDRTTIDLQQKHTAYSIGNLKPDTEYEVSLICFDPYGMRSKPAKETFTTGGGGSGGGGSGGGGSAIEVKDVTDTTALITWAKPWVDPPPLWGCELAYGIKDVPGDRTTIDLQQKHTAYSIGNLKPDTEYEVSLICFDPYGMRSKPAKETFTTGGGGSGGGGSGGGGSAIEVKDVTDTTALITWAKPWVDPPPLWGCELAYGIKDVPGDRTTIDLQQKHTAYSIGNLKPDTEYEVSLICFDPYGMRSKPAKETFTTGGGGSGGGGSGTLGHHHHHHHH
EC50, killing of Colo205 cells [1]: 0.04 nM
Maximum Inhibition %, Colo205 cells [1]: 97%
EC50, killing of Jurkat cells [2]: 0.05 nM
Maximum Inhibition %, Jurkat cells [2]: 83%

B6: A5(1E11) (designed binder)
chain: SGGGGSAIEVKDVTDTTALITWAKPWVDPPPLWGCELAYGIKDVPGDRTTIDLQQKHTAYSIGNLKPDTEYEVSLICFDPYGAKSNPAKETFTTGGGGSGGGGSGGGGSAIEVKDVTDTTALITWAKPWVDPPPLWGCELAYGIKDVPGDRTTIDLQQKHTAYSIGNLKPDTEYEVSLICFDPYGAKSNPAKETFTTGGGGSGGGGSGGGGSAIEVKDVTDTTALITWAKPWVDPPPLWGCELAYGIKDVPGDRTTIDLQQKHTAYSIGNLKPDTEYEVSLICFDPYGAKSNPAKETFTTGGGGSGGGGSGGGGSAIEVKDVTDTTALITWAKPWVDPPPLWGCELAYGIKDVPGDRTTIDLQQKHTAYSIGNLKPDTEYEVSLICFDPYGAKSNPAKETFTTGGGGSGGGGSGTGSAMASGGGGSAIEVKDVTDTTALITWAKPWVDPPPLWGCELAYGIKDVPGDRTTIDLQQKHTAYSIGNLKPDTEYEVSLICFDPYGAKSNPAKETFTTGGGGSGGGGSGGGGSAIEVKDVTDTTALITWAKPWVDPPPLWGCELAYGIKDVPGDRTTIDLQQKHTAYSIGNLKPDTEYEVSLICFDPYGAKSNPAKETFTTGGGGSGGGGSGGGGSAIEVKDVTDTTALITWAKPWVDPPPLWGCELAYGIKDVPGDRTTIDLQQKHTAYSIGNLKPDTEYEVSLICFDPYGAKSNPAKETFTTGGGGSGGGGSGGGGSAIEVKDVTDTTALITWAKPWVDPPPLWGCELAYGIKDVPGDRTTIDLQQKHTAYSIGNLKPDTEYEVSLICFDPYGAKSNPAKETFTTGGGGSGGGGSGTLGHHHHHHHH
EC50, killing of H2122 cells [5]: 0.0006 nM
Maximum Inhibition %, H2122 cells [5]: 97%

B8: G3 (designed binder)
chain: AIEVKDVTDTTALITWAKPEKWDPPLWGCELAYGIKDVPGDRTTIDLNSRHTAYSIGNLKPDTEYEVSLICFTPYGAKSNPAKETFTTGGGTLGHHHHHHHH
Fold Improvement (Kd, against lead clone 1C12) [6]: 10 fold
Kd [6]: 422 nM

B9: A5(G6) (designed binder)
chain: SGGGGSAIEVKDVTDTTALITWAKPWVDPPPLWGCELAYGIKDVPGDRTTIDLQQKHTAYSIGNLKPDTEYEVSLICFDPYGMRSKPAKETFTTGGGGSGGGGSGGGGSAIEVKDVTDTTALITWAKPWVDPPPLWGCELAYGIKDVPGDRTTIDLQQKHTAYSIGNLKPDTEYEVSLICFDPYGMRSKPAKETFTTGGGGSGGGGSGGGGSAIEVKDVTDTTALITWAKPWVDPPPLWGCELAYGIKDVPGDRTTIDLQQKHTAYSIGNLKPDTEYEVSLICFDPYGMRSKPAKETFTTGGGGSGGGGSGGGGSAIEVKDVTDTTALITWAKPWVDPPPLWGCELAYGIKDVPGDRTTIDLQQKHTAYSIGNLKPDTEYEVSLICFDPYGMRSKPAKETFTTGGGGSGGGGSGTGSAMASGGGGSAIEVKDVTDTTALITWAKPWVDPPPLWGCELAYGIKDVPGDRTTIDLQQKHTAYSIGNLKPDTEYEVSLICFDPYGMRSKPAKETFTTGGGGSGGGGSGGGGSAIEVKDVTDTTALITWAKPWVDPPPLWGCELAYGIKDVPGDRTTIDLQQKHTAYSIGNLKPDTEYEVSLICFDPYGMRSKPAKETFTTGGGGSGGGGSGGGGSAIEVKDVTDTTALITWAKPWVDPPPLWGCELAYGIKDVPGDRTTIDLQQKHTAYSIGNLKPDTEYEVSLICFDPYGMRSKPAKETFTTGGGGSGGGGSGGGGSAIEVKDVTDTTALITWAKPWVDPPPLWGCELAYGIKDVPGDRTTIDLQQKHTAYSIGNLKPDTEYEVSLICFDPYGMRSKPAKETFTTGGGGSGGGGSGTLGHHHHHHHH
EC50, killing of Colo205 cells [1]: 0.0005 nM
Maximum Inhibition %, Colo205 cells [1]: 100%
IC50 of cell killing, 786-0 cells (CellTiter-Glo) [7]: > 10 nM
IC50 of cell killing, BT-649 cells (CellTiter-Glo) [7]: > 10 nM
IC50 of cell killing, CaCo-2 cells (CellTiter-Glo) [7]: 0.044 nM
IC50 of cell killing, HPAF-II cells (CellTiter-Glo) [7]: 0.016 nM
IC50 of cell killing, HT29 cells (CellTiter-Glo) [7]: 0.01 nM
IC50 of cell killing, Hep3B cells (CellTiter-Glo) [7]: 0.023 nM
IC50 of cell killing, Hep G2 cells (CellTiter-Glo) [7]: 0.04 nM
IC50 of cell killing, Hs766T cells (CellTiter-Glo) [7]: > 10 nM
IC50 of cell killing, LoVo cells (CellTiter-Glo) [7]: 0.005 nM
IC50 of cell killing, NCI-H23 cells (CellTiter-Glo) [7]: > 10 nM
IC50 of cell killing, NCI-H522 cells (CellTiter-Glo) [7]: > 10 nM
IC50 of cell killing, SKHEP-1 cells (CellTiter-Glo) [7]: 0.055 nM
IC50 of cell killing, SNB-75 cells (CellTiter-Glo) [7]: > 10 nM
IC50 of cell killing, SNU-387 cells (CellTiter-Glo) [7]: > 10 nM
IC50 of cell killing, SNU-398 cells (CellTiter-Glo) [7]: > 10 nM
IC50 of cell killing, SNU-475 cells (CellTiter-Glo) [7]: > 10 nM
IC50 of cell killing, SW820 cells (CellTiter-Glo) [7]: > 10 nM
IC50 of cell killing, SW837 cells (CellTiter-Glo) [7]: > 10 nM
IC50 of cell killing, T84 cells (CellTiter-Glo) [7]: 0.247 nM
EC50, killing of Jurkat cells [2]: 0.0001 nM
Maximum Inhibition %, Jurkat cells [2]: 100%

B11: G6 (designed binder)
chain: AIEVKDVTDTTALITWAKPWVDPPPLWGCELAYGIKDVPGDRTTIDLQQKHTAYSIGNLKPDTEYEVSLICFDPYGMRSKPAKETFTTGGGTLGHHHHHHHH
Fold Improvement (Kd, against lead clone 1C12) [6]: 96 fold
Kd [6]: 43 nM

B12: M13 (M13) (designed binder)
chain: AIEVKDVTDTTALITWHDAFGYDFGCELTYGIKDVPGDRTTIDLPDHFHNYSIGNLKPDTEYEVSLICANDHGFDSNPAKETFTTGGGTLGHHHHHHHH
IC50 [3]: 71 nM
